In experiment [1] the target is PF-06438179/GP1111 Fab fragment (mouse/human chimeric). The experiment in a line: AUC.
In experiment [2] the target is Remicade Fab fragment (sourced from the European Union market) (mouse/human chimeric). In words: AUC.

Take PF-06438179/GP1111 Fab fragment: the stoichiometry N – broadly, a count of units in the complex or per binding partner – in experiment [1] turned out to be 2.

“Remicade Fab fragment (sourced from the European Union market)”: the Kd (in general, the concentration at which binding is half-saturated) in experiment [2] was determined as 23 µM.

These data come from article PMC6985046.
